Laboratory results reported in PMC6863750 (Nature cell biology, 2018).

B1: GST-CYRI-B RBD (domain or fragment)
chain: ESEKEIYNQVNVVLKDAEGILEDLQSYRGAGHEIREAIQHPADEKLQEKAWGAVVPLVGKLKKFYEFSQRLEAALRGLLGALTSTPYSPTQHLEREQALAKQFAEILHFTLRFDELKMTNPAIQNDFSYYRRTLSRMRINNVPAEGENEVNNELANRMSLFYAEATPMLKTLSDATTKFVSENKNLPIENTTDCLSTMASVCRVMLE
B2: CYRI-B RBD (analyte in SPR) (domain or fragment)
chain: B1 chain

Legend:
[1] = target: purified recombinant Rac1 Q61L (analyte in SPR) (UniProt P63000 1-192, Q61L); experiment: SPR
[2] = target: His-Rac1 Q61L (immobilised in SPR) (UniProt P63000 1-192, Q61L); experiment: SPR

Binder | Kd [1] [µM] | Kd [2] [µM]
B1 | 27 | –
B2 | – | 22
